Literature values, collected in publication PMC12869367.

Target: DMBT1S8L (Homo sapiens) (UniProt Q9UGM3)
Chain of UniProt Q9UGM3 (Q9UGM3 20-2413): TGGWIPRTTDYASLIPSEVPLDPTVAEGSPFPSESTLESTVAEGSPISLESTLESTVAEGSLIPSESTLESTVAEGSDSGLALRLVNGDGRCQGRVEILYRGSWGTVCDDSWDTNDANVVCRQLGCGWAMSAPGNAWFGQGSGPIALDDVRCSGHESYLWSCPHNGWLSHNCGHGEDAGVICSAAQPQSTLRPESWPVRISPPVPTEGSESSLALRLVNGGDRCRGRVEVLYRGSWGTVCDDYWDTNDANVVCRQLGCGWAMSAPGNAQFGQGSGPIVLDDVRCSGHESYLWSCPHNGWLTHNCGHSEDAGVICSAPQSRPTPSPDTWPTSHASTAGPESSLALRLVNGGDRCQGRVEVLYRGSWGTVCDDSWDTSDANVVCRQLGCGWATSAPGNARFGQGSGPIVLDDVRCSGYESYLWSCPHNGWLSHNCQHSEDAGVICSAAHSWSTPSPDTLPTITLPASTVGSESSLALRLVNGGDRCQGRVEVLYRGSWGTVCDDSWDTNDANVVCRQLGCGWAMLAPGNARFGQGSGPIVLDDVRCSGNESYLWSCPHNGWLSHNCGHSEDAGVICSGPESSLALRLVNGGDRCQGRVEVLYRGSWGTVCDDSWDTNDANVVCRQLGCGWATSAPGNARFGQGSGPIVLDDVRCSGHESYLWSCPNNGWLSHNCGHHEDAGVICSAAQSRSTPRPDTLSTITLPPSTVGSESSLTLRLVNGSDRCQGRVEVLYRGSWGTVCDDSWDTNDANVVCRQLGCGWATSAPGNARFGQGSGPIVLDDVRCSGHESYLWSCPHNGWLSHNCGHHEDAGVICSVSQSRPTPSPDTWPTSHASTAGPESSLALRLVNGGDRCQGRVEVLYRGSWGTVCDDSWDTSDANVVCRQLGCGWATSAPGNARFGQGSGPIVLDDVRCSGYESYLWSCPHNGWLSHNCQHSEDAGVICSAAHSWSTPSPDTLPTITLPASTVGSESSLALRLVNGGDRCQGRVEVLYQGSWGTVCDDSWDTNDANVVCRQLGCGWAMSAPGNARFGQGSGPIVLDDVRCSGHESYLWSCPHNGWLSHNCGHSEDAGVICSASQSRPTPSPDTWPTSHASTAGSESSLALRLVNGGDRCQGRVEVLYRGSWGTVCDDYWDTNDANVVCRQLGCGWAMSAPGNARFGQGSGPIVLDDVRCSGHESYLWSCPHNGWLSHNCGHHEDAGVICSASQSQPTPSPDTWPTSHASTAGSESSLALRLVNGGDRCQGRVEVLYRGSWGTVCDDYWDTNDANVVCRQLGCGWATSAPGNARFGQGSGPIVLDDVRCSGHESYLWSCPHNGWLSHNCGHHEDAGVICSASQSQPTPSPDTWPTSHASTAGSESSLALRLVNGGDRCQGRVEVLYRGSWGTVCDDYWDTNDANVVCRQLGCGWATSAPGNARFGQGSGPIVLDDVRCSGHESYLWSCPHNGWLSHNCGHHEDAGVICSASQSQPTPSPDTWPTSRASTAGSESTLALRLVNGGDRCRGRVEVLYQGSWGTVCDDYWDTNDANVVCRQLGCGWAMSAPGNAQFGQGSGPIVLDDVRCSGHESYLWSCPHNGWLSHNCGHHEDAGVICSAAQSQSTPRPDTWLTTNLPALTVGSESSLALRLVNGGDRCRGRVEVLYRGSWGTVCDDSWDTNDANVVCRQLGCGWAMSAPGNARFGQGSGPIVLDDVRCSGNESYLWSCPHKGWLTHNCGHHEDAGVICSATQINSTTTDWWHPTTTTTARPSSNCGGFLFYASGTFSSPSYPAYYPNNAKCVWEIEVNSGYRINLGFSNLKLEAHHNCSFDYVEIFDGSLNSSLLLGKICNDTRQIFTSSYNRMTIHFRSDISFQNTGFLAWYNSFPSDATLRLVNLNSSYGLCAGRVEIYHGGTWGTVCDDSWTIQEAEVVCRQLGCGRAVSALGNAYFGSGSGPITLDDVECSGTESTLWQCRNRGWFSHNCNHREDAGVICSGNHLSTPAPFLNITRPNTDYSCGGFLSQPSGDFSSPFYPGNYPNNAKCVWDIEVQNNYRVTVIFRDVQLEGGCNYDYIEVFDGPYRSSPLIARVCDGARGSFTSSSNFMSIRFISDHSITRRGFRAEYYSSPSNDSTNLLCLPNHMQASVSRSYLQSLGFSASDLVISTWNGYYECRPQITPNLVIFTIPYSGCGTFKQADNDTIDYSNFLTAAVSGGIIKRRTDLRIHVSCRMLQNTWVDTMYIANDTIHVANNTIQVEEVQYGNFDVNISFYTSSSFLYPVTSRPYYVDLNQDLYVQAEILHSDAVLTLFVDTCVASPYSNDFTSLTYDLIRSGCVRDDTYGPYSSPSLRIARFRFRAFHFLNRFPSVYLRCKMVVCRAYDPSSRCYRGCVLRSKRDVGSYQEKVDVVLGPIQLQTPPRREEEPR

Kd: 0.06 nM
Substance: Siglec-8-Fc (from UniProt Q9NYZ4)
